Test results taken from patent US20230279107A1 (ZHEJIANG RUIJIAMEI BIOTECH, published 2023).

Target: T1, CD19 expressed on Hela cells (stable cell line Hela-CD19) (human, UniProt P15391 20-556)
T1 sequence (looked up): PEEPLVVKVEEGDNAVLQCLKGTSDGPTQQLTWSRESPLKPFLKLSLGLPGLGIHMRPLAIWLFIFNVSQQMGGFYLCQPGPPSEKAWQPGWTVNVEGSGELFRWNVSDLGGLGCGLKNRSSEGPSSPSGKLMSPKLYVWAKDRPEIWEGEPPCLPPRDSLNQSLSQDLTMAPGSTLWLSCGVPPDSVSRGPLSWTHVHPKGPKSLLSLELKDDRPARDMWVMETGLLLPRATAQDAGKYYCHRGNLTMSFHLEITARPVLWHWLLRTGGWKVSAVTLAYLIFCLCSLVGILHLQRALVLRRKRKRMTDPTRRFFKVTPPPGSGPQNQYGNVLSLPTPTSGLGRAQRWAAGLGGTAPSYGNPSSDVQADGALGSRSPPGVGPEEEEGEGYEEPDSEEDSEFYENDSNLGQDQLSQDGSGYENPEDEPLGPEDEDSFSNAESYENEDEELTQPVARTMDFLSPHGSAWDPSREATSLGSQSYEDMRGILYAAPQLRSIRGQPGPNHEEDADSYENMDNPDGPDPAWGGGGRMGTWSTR
Assay: cell-based or functional assay

B1: Humanized CD19-4-1BB-CD3-CAR protein (CD8 leader sequence-CD19 scFv (VL-Linker-VH)-CD8 hinge-CD8 TM-41BB-CD3-zeta), expressed on DNT cells (other)
chain: DIQMTQSPSSLSASVGDRVTITCRASQDISKYLNWYQQKPGKAPKLLIYHTSRLHSGVPSRFSGSGSGTDFTLTISSLQPEDFATYYCQQGNTLPYTFGGGTKVEIKGSTSGSGKPGSGEGSTKGQVQLQESGPGLVKPSETLSLTCTVSGGSLPDYGVSWIRQPPGKGLEWIGVIWGSETTYYNSALKSRVTISVDTSKNQFSLKLSSVTAADTAVYYCAKHYYYGGSYAMDYWGQGTLVTVSSTTTPAPRPPTPAPTIASQPLSLRPEACRPAAGGAVHTRGLDFACDIYIWAPLAGTCGVLLLSLVITLYCKRGRKKLLYIFKQPFMRPVQTTQEEDGCSCRFPEEEEGGCELRVKFSRSADAPAYKQGQNQLYNELNLGRREEYDVLDKRRGRDPEMGGKPRRKNPQEGLYNELQKDKMAEAYSEIGMKGERRRGKGHDGLYQGLSTATKDTYDALHMQALPPR
B1 was tested, and the “specific killing of Hela-CD19 by CAR19-DNT cells on day 8 of culture (RTCA, effector-target ratio 2:1, 18 h)” value was 98.5% and the “specific killing of Hela-CD19 by CAR19-DNT cells on day 13 of culture (RTCA, effector-target ratio 2:1, 18 h)” value was 98.1%.
